Measurements as given in PMC12808597 (2025).

B1: mouse glucagon-like peptide-1 receptor, untagged (receptor)
chain: GPRPQGTTVSLSETVQKWREYRRQCQRFLTEAPLLATGLFCNRTFDDYACWPDGPPGSFVNVSCPWYLPWASSVLQGHVYRFCTAEGLWLHKDNSSLPWRDLSECEESKRGERNFPEEQLLSLYIIYTVGYALSFSALVIASAILVGFRHLHCTRNYIHLNLFASFILRALSVFIKDAALKWMYSTAAQQHQWDGLLSYQDSLGCRLVFLLMQYCVAANYYWLLVEGVYLYTLLAFSVFSEQRIFKLYLSIGWGVPLLFVIPWGIVKYLYEDEGCWTRNSNMNYWLIIRLPILFAIGVNFLIFIRVICIVVSKLKANLMCKTDIKCRLAKSTLTLIPLLGTHEVIFAFVMDEHARGTLRFIKLFTELSFTSFQGLMVAILYCFVNNEVQMEFRKCWERWRLEHLNIQRDCSMKPLKCPTSSVSSGATVGSSVYAATCQSSYS
B2: GLP-1R endogenously expressed in INS-1 832/3 clonal rat β-cells (receptor)
chain: GPRPQGATVSLSETVQKWREYRHQCQRFLTEAPLLATGLFCNRTFDDYACWPDGPPGSFVNVSCPWYLPWASSVLQGHVYRFCTAEGIWLHKDNSSLPWRDLSECEESKQGERNSPEEQLLSLYIIYTVGYALSFSALVIASAILVSFRHLHCTRNYIHLNLFASFILRALSVFIKDAALKWMYSTAAQQHQWDGLLSYQDSLGCRLVFLLMQYCVAANYYWLLVEGVYLYTLLAFSVFSEQRIFKLYLSIGWGVPLLFVIPWGIVKYLYEDEGCWTRNSNMNYWLIIRLPILFAIGVNFLVFIRVICIVIAKLKANLMCKTDIKCRLAKSTLTLIPLLGTHEVIFAFVMDEHARGTLRFVKLFTELSFTSFQGFMVAVLYCFVNNEVQMEFRKSWERWRLERLNIQRDSSMKPLKCPTSSVSSGATVGSSVYAATCQNSCS
B3: human glucagon-like peptide-1 receptor, untagged (receptor)
chain: RPQGATVSLWETVQKWREYRRQCQRSLTEDPPPATDLFCNRTFDEYACWPDGEPGSFVNVSCPWYLPWASSVPQGHVYRFCTAEGLWLQKDNSSLPWRDLSECEESKRGERSSPEEQLLFLYIIYTVGYALSFSALVIASAILLGFRHLHCTRNYIHLNLFASFILRALSVFIKDAALKWMYSTAAQQHQWDGLLSYQDSLSCRLVFLLMQYCVAANYYWLLVEGVYLYTLLAFSVLSEQWIFRLYVSIGWGVPLLFVVPWGIVKYLYEDEGCWTRNSNMNYWLIIRLPILFAIGVNFLIFVRVICIVVSKLKANLMCKTDIKCRLAKSTLTLIPLLGTHEVIFAFVMDEHARGTLRFIKLFTELSFTSFQGLMVAILYCFVNNEVQLEFRKSWERWRLEHLHIQRDSSMKPLKCPTSSLSSGATAGSSMYTATCQASCS

Legend:
[1] = molecular target: exendin-asp3 Cy5 conjugate (Cy5 fluorophore (conjugation position shown in Figure 2A))
[2] = molecular target: exendin-phe1 tetramethylrhodamine conjugate (tetramethylrhodamine (TMR) fluorophore (conjugation position shown in Figure 2A))
[3] = molecular target: exendin-asp3 tetramethylrhodamine conjugate (tetramethylrhodamine (TMR) fluorophore (conjugation position shown in Figure 2A))
[4] = molecular target: exendin-phe1 Cy5 conjugate (Cy5 fluorophore (conjugation position shown in Figure 2A))

Binder | Kd [1] | Kd [2] | Kd [3] | Kd [4]
B1 | 2.7 nM | 6.7 nM | 5.9 nM | 
B2 |  | 12.3 nM |  | 0.7 nM
B3 | 2.8 nM | 18.5 nM |  | 
